In the NTF2 design screens of Basanta et al. (2020):

Test: protease stability score; higher = more stable; yeast display proteolysis, trypsin and chymotrypsin;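 further: log10 excess protease needed over predicted unfolded state with 0 meaning unfolded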

| Sequence | protease stability score |
| --- | --- |
| EEEKMEKLMKQLFDAVQKGDVDKFVKYLKEDVEFQFGDNRIKGVEEYKRTMEEMHKKGVQFEIKEAQNKDDTVKMRTVVHYGNQTFEVTAEATYDGGVLDKARVEVSEEAKEAFKKG | 0.992 |
| DEEHQKHFEQFVKAMETGDEERLAQLVDKDVEISYGDKTIHGREELRKRVREIKEELRLTMDFKRITVRGDKVQANFKASMNHNGQPVSFKAHVTVTAHNGTIKSVSLSNHK | 1.1 |
| DEDAKKQVETMIRLIERGNEKEIKKQMDPNATYQVGDNRLHGMDQVNKHLKDLKEQMRFVFDVKSITVRGDKVDIDLQLDKNENGRPDKEDARMIVHVHNGSVKSVIVTTRG | 0.143 |
| DQRTREKVAEDIDNNDPQKLQDQADENVRVEYGNKVVHGREQMQEWARSLKDDVDSLEVDHVELDGDKIDARVNFNVNGRRVVFTIEADAHNGTIQRLRMTVTSEEQDTHMKQAAN | -0.209 |
| DEELHTIANEFNKALDRGDRKKLVDLADPNAQAVVGDQTLHGMEHVAHTIKKRQEEMRLDLKSVSVSVKGNNAILNFNALLHVNGKPVEISMRIILTVSNGKIQVIVEQFDPEQMRTARK | -0.289 |
| DEDRVRKVAKEVFEMLKKGDVDKLKELGKEDVVFQFGDERVKGVEEYRRIMKEMQDQGVQHEVKKAQVKDDTAKMVTVVTYGNKDVQLTAEATYEGGRLKEARVENTEEYKKIAKKS | -0.084 |
| DERVKQQVETLERAVKHNDEDRLKELMDPNVRVRVGDRTVEGREEIAKQLVRTNNESRIEQKIDRVDVRGDKVHIDFQRREHHDGKPDSAKFNVLVKASNGRISEMEVHTNQ | -0.248 |
| DEHKVKEAAERFVRMLEHNDPDTLSKLFDPNVTMQVGDKEYQGRETLMRLVKELKKRVDHIEVKQVHASNGRVNVRMTIQFNGKRFEFTMHIVLHDGRVDTLSLDVRNEEEKRRVDS | 1.31 |
| DETRMRELDKVFHHNDPDKMRENLDENVRMVVGDKSFTGRHQVQDWLKIFHDQVDHFEVESLTKEGNKIDVVYRAVVNGQEFRMRVDITVHNGRIKMIKVDFTNEDETRQFLEHIK | 1.55 |
| DDQKKKELMQKMVEAYLSGHHEEVEKLGKDDGKVEAGDRKYEGSEQARKAAKQFKTYGVELRITDMQQDGDRLDVKAEAHMGGVTWEFTATVTADGGKVDKIQIDASDDAKKAIKDG | 0.725 |
| DEELADLAHKLLEAYHTGNPDDVVRNMDPNARQTIGDRTVHGRENIKKMLRKVLQEWRIDIHLRSYHLNGNQVKLSADFNLTVNGKPDEFTATIIVIQHNGKIHEVQLRMPEQDFREITS | 1.05 |
| DSDEVRKFNEKVKTGNPKHLQDMFDENAKVQIGNKDFRGREHVQTVIDKIERDVDHKEIKRMEVKGDHFEIDAIYNINGHNIRMIIKIQVRNGKIQNMTVEFTNEEQQEIFEENVQ | 0.423 |
| DEEKVSEAHEFMQDVQNGDEKSLNDLMDKNDEVNVGDKTVHGREDFTRQFQKRRKELRLNIQSVSATRHGDSVVVHVQAQRNHNGNPEESRYVVILSKHNGRIQNVDVKEDK | 0.919 |
| DEEVRKAYHDAMKAEEKGDEDRIRELFDPNARVQVGDKTYQGREDISHNLAREQKHARYHIKHVDLQVHNGRLTVKQTYDFQHNGQPNSDRDKATIEADGENIKDVEVKQNP | -0.27 |
| DTEDNHKLREVIRTNNPQEIREMMDPNVKVRYGNKEIEGRDQAVKHEQDLQHRADRVKIEDMRVHGDKLVVVWSINIDGSEFRFSFEARIHNGKVKFAQIQFTDPDLERKFDDMLQ | 0.324 |
| DDDAQRVLNEFWRHWRRGNEEELKKLVDPNAQFEVGNKTFHGREHYANYLRRVSEEMTFDINIKDMSVEGDQVVIDATIMVQVNGNPISIKVIWRANATNGKIKYLSLQIDEDMVRQQQS | 0.445 |
| EEESAQEFMKNLNTGNFEELNKMADENARMQVGDKTFQGRHQIETLLKTLKKQIDHVSFKSVEMNGDKVDAKVVFQVNGQHFEVIVKVDVRGDRVTHVTYEFTNEDQEERFKRAVQ | 1.35 |
| DENKLKEVANRIVSAVRTNDPDHLANLFDKDDKFQIGEKQFHGHEELRKALEEIHQEVDRLHVKTYELHNGVVKIHVDMKYNGHEIKVVFYFTVHNGRLKYMEVKSQ | -0.346 |
| EEQVEELMHRIMTAIKTNNPDDLKRNIDPNAKIRIGDTVIHGMEEYVHQFEEEVKQLRIEIIDVQQDIKGDKVVVKIRFRRQHNGRPDETVTVFTAKMDNGKVKSLDFQEDG | 1.22 |
| DEHRQLEEVLSQIQDALRTNNPDDWADQADENAEFNIGDKSFSGREKVREYAETHMKDADHVSMDVRRVDVRNGRARVSARITAKVNGETKDVTYDMVFKFHNGQAKLVQMNES | 0.996 |
| EEDAVDRARKMFENLKTGNEDHFKEQFDPNATIRIGDQKVHGMENLKDHMRKVRKHMRVDFRRVDIKAENGRIDIKARADFSVNGRPVSQHFTARAVVSNGRFKSFELQVSEEDEKKVKS | 0.606 |
| DKEEARKVLEELIKAVESGNPKDLKKYGKDGVKYRLGDREAHGPEAVYKQFEQIHRQGVELRFEDTKVEGDKVTTRVTYRNGDETYTVQIHAEVRGGKIDRVEADLSDKAKEVVKHG | -0.066 |
| DEQKTRQLEEVKKQLEHGNEREAKKNFDENVHINVGDKQIHGMHDAAREMATSWTQIRNEMTITRVHVRGDKIEIRASMVQNTNGRPRKAKVHIDVRINNGKIKRVTVKYDG | 0.181 |
| DEDHKAREMMRRWEHNWRTGDPNKLANQFDPNATWDVGDHTIKGREQYAEQIKRNMEQADDVHITVKDVKREGETIVVRFHDVQNHNGQNRVTIVNARFFDDNGSFVMVSFKQE | -0.321 |
| EDELLHILKEFIQAVNSGDSDKLRELMDPNVKAEYGDKEIHGREEIARQWRQIRHEIKFSWKHLHFEVKGDKLRVDFTVVMDVNGKPKHYRAVLYMKLKNGRITTLHVKMPEEEAKELNK | 0.363 |

| Sequence | protease stability score |
| --- | --- |
| DDHSSARKFADEFREMMKTGDSTKADELFDPNVRVEVGDKRYHGREQAVDWIRHLVDRYDHIEIRIDHITVRGDRISIVFTVHYEKNGETTYDRYVMVAVDRNGRAQIKMLRKG | 2.51 |
| DETAISVAKTMFEAMESNDPDEVRRQADPNATFVIGDKNYHGMETYAKEVKKRNDKIDVQLQDMDITDQGEDADIKQVAVFTHDGRPKKVVIHWDISVRNGRIKFVHADQRG | -0.4 |
| EQDQIRRLKTFIKIIDHNNPSKVRELLDKDVHIDIGDKVIRGREEYADEIHKLQKEMRVKLQVDDIKDHGEHVHFTARWYARVNGRPRTNEIHVQARAHNGHVTSIKVHMDPRVLKEMRS | -0.027 |
| DEKKAQKLMKKAFKMIKDGNEDEVRKLGKPNVKYEYADQQYEGEDAVRVAVQIVKRVGAEDKTETQEVKGDTARAVFVYKKGDTEVQTTAEVIYKGDKMEEARVKLSDEVKKVVHQG | 0.124 |
| DEEKMLRIAKKMVDALKNGDKDKVKKLGAEGVKVHAMDEEVEGPDQLAKYAKKFKDIGVHVEYKETEYKGDTVTFHTEAEKGDAKVRFEVHYVVKGDKVQKVEVRVDKDQLTEFRKS | 0.524 |
| EDDAITRWEELERQQETGNEEKAQEMVDPNVKMRYGDDNFHGREEYRKLVHKIRKNWREDVKDVRFEDHGEEIKVEYRVHQDINGKPVNADVTAEAQMSNGRLKKFVLRFSETQEKEIES | 0.351 |
| DDHDRQKLSEWYKNYESGDPDKLVDMADPNARFQYGDKHVRGREQIHRQWRKELTEQRFTVVKMSASDHNGVIDMKFTNEVEHNGRPDRRKFSFTFRVRNGQAQEFDLQTTK | 0.014 |
| DEETNQELLERLIDLISHGDEDEFNRQADEEAKAQYGDTRYHGREEVVKAIKTLADRVDHWHIESYHVHGNEMVIDMRWTVNGRTRRANIVMEAENGRIKYVQMDDQ | 0.765 |
| EDENRKRIEHFLEVKEHGNPDEAKRLADPNVHLKVGDQTVHGRSQLSKILEKEVKEIRFSMQIDSYDDRPGRIKMSATMVLNINGQPIKVTFDAEYVLDNGRISHVEIRMDPTRLHEIKK | 0.64 |
| DEDASKQVEDFERALKTGDENRLHELMDKDARVEVGDKRYHGRKQIARQQVQHYEEMRVDLHVQDIDVQGDKIKVDVTRQIEVNGKPISNRIIIYVTIHNGKIQRMDVDVPDEDMDKIEK | 0.769 |
| DKDAAQLFHQYLEAKKHNNEDQLRENMDPNVQWTIGDKVITGREEAAKRMVDENREQRVEISHMQVHDNNGHAVFRADVRYKHNGKPSRSRFVVRVQARNGKIHSVKVERHS | 0.076 |
| DEEELREMVKKWLEVVQKGDQKKAVEMYKPNGEWRMIDEEKQGQEDVEKMLRKAQEDGVEFQTRKAKVEGNKAEMHYDMKLGDETVTFTVQLVAHGGRIDRVKVKVTEEAKKLLTKG | 0.221 |
| DEQLVKILQRFRKAMEHGDPKEAQKYFDPNAEFVYGDKEIHGREQVNTWIHTFMRSIRVDIKSLTVRASGNKAHIQYSAVYEENGRPKTAHFHMTVQVTNGKIKHADVKYRG | 1.1 |
| DKREQSEIAKEVLRMLLTGDPDQNHKLADKDVQFSVGDRTITGREDLDRWLREMHHHIDTQEVKSLDVNGEDVVIDVVATFNGVHMRFVIRVEVHNGRIVNMRMEVTSEETLKRVDG | -0.092 |
| DEEQLKMARELFEIMHTGDPDQLKEQFPPDAHFNIGDKRVSGMTEFARQVENEHKEQRRSIDIKSMDVNSPHVTIQARFEVEHNGQPHTSTATIQFQFQNGRFLNMRVQSHQ | -0.106 |
| DDKDIQEIAHEINHAWEEGDSKRFADLLSENARVDVGDKDYEGREFNKKWMKDIRDRVDHLEIDHVSAKGNTVEVTMVMNINGRNATVVVEYTFHNGQVRHAQLKFTSEEDKRKFHG | 0.453 |
| DEEALKHAKKLLNIITNGNPSEAQKLFDPNAKAHIGDQTLTGREDYVRDLQEKKDRMRYKIKSMDAQTDGEKVRFDIKYDFNINGQPRHASVVIRLKLHNGKIVEIRVQIDPEQLKQHRQ | 1.09 |
| DEEDQRRVAHDAADALRTGDPDRMVQLADPNVTLDIGDKRFTGDEEFHKAMKEISRQVDHMKIDSYTVRNGRASISAVLEVNGKRKRVFFVFVIHNGRIKELHIKTE | 1.59 |
| DDHEKANKVVSKLVEANRTGDEKKFVDMADPNVQLNIGDQRVHGREQAEKFARDFHTRFDHLDVKIKDVDVQGEKLELDVKMKVHFDGRTHEINMRLELQRNNGRVKLVRLHIP | 0.097 |
| DDTAAEVLKEQLDVLKQGDPDRVNQLVDPNAKRHVGDKNYRGMNSMADEDAQKMRNSRIKYTHWEQERSGDKVRVVVVYIEDHNGEPDTHRREFVFKASNGRFHQLNQDDDQ | -0.232 |
| DEEKHAESAIHHIIKVFKENNPDQFRRNADPNVKVNVGEHEVDGRDDLAKYMVDEANRVDHASYEIVHLDVRGDKARARVRVIVKFDGQERKYEYVFVFVEQNGEVVITKVQHQ | 1.1 |
| DEDLMERLKTILDAQSNGNPDELRRMFDPNAKIDIGDKEYHGMENFASNQHKRVKHIEQKYQFKSISAEGDKLDVRLRAQQVVNGTPRKYEYNLTARMSNGKVKSMEVQIPEEVLKRLEK | -0.219 |
| DEEDLDRVESALRTNDPDTLSEMADKDVKVEYGDKSYQGRERFQHFIKQLAHQVDHVEVRSVDKRGDRLKATRVLVINGRSITVVVTIEARNGRIKMLEMSARNESQEKKLVELFQ | 0.941 |
| DEEEIRMILDVIRARESGDEDRLHELLDKDVEFQVGEKTYHGREEIVRQVLQERREMQYSVNVKTVRDHNGVADIKAEFHFLYNGRPMNIDVEIHAHAHNGSVVNFRVRVDPKQMDDFKT | 1.26 |
| DDHAVRLLNDIVRALNSGDEQKVADNADPNVRIEYGDSVITGRERLMEEIQKRRKELRFEVQVDRVREKPNHVVADVQLHFNVNGQPRNMKVEVRATWTNGKLKHMHIKMDEEQVRQLKR | 1.1 |
